From paper PMC6004480 (Proceedings of the National Academy of Sciences of the …, 2018)
One block for each binder: values may come before it.

How the values were obtained:
[1] = molecular target: T1, MTR4, full length (human, UniProt P42285 1-1042); experiment: pull-down
T1 sequence: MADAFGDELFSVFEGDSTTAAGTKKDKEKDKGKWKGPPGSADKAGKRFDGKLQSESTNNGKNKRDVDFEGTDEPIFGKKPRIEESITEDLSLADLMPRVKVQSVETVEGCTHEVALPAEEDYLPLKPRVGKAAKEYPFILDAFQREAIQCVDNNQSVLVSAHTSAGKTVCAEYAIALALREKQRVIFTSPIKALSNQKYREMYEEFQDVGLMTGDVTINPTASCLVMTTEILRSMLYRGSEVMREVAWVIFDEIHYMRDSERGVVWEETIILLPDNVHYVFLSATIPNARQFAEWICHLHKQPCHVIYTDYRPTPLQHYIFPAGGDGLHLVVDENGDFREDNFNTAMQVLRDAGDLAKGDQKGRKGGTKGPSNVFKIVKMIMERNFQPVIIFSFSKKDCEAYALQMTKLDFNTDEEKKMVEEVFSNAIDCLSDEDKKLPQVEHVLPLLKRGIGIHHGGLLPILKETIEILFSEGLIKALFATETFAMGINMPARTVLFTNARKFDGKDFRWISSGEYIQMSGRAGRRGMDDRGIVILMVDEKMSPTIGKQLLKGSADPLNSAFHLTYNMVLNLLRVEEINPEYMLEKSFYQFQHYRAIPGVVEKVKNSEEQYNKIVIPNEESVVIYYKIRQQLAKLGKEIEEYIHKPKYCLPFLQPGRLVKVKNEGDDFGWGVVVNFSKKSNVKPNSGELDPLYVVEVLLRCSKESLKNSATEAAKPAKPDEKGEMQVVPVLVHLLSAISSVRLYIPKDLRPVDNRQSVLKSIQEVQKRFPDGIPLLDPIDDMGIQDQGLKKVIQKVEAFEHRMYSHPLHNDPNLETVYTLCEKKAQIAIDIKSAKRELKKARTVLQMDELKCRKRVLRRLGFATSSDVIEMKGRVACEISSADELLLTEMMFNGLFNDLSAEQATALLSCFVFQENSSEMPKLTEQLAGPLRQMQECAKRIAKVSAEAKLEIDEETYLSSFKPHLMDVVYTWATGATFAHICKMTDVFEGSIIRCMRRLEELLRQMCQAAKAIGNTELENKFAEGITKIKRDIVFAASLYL

[2] = molecular target: T1, MTR4, full length; experiment: SEC
[3] = molecular target: MTR4;ZCCHC8core;RBM7core (Homo sapiens?;Homo sapiens?;Homo …, UniProt P42285;Q6NZY4;Q9Y580 1-1042;1-707;6-94, |del416-507|); experiment: EMSA

binding result [1]: binds
B1: Copurified complex of Strep-RBM7core and full-length ZCCHC8 (Z1) (complex)
chain 1: AEADRTLFVGNLETKVTEELLFELFHQAGPVIKVKIPKDKDGKPKQFAFVNFKHEVSVPYAMNLLNGIKLYGRPIKIQFRSGSSHAPQD
chain 2: MAAEVYFGDLELFEPFDHPEESIPKPVHTRFKDDDGDEEDENGVGDAELRERLRQCEETIEQLRAENQELKRKLNILTRPSGILVNDTKLDGPILQILFMNNAISKQYHQEIEEFVSNLVKRFEEQQKNDVEKTSFNLLPQPSSIVLEEDHKVEESCAIKNNKEAFSVVGSVLYFTNFCLDKLGQPLLNENPQLSEGWEIPKYHQVFSHIVSLEGQEIQVKAKRPKPHCFNCGSEEHQMKDCPMPRNAARISEKRKEYMDACGEANNQNFQQRYHAEEVEERFGRFKPGVISEELQDALGVTDKSLPPFIYRMRQLGYPPGWLKEAELENSGLALYDGKDGTDGETEVGEIQQNKSVTYDLSKLVNYPGFNISTPRGIPDEWRIFGSIPMQACQQKDVFANYLTSNFQAPGVKSGNKRSSSHSSPGSPKKQKNESNSAGSPADMELDSDMEVPHGSQSSESFQFQPPLPPDTPPLPRGTPPPVFTPPLPKGTPPLTPSDSPQTRTASGAVDEDALTLEELEEQQRRIWAALEQAESVNSDSDVPVDTPLTGNSVASSPCPNELDLPVPEGKTSEKQTLDEPEVPEIFTKKSEAGHASSPDSEVTSLCQKEKAELAPVNTEGALLDNGSVVPNCDISNGGSQKLFPADTSPSTATKIHSPIPDMSKFATGITPFEFENMAESTGMYLRIRSLLKNSPRNQQKNKKASE

binding result [1]: binds
B2: Copurified complex of Strep-RBM7core and ZCCHC8 283-415 + 508-707 (Z4) (complex)
chain 1: B1 chain 1
chain 2: FGRFKPGVISEELQDALGVTDKSLPPFIYRMRQLGYPPGWLKEAELENSGLALYDGKDGTDGETEVGEIQQNKSVTYDLSKLVNYPGFNISTPRGIPDEWRIFGSIPMQACQQKDVFANYLTSNFQAPGVKSGGAVDEDALTLEELEEQQRRIWAALEQAESVNSDSDVPVDTPLTGNSVASSPCPNELDLPVPEGKTSEKQTLDEPEVPEIFTKKSEAGHASSPDSEVTSLCQKEKAELAPVNTEGALLDNGSVVPNCDISNGGSQKLFPADTSPSTATKIHSPIPDMSKFATGITPFEFENMAESTGMYLRIRSLLKNSPRNQQKNKKASE

binding result [2]: binds
B3: ZCCHC8, full length (Z1) (natural protein)
chain: B1 chain 2

binding result [1]: binds
B4: Copurified complex of Strep-RBM7core and ZCCHC8 1-327 (Z2) (complex)
chain 1: B1 chain 1
chain 2: MAAEVYFGDLELFEPFDHPEESIPKPVHTRFKDDDGDEEDENGVGDAELRERLRQCEETIEQLRAENQELKRKLNILTRPSGILVNDTKLDGPILQILFMNNAISKQYHQEIEEFVSNLVKRFEEQQKNDVEKTSFNLLPQPSSIVLEEDHKVEESCAIKNNKEAFSVVGSVLYFTNFCLDKLGQPLLNENPQLSEGWEIPKYHQVFSHIVSLEGQEIQVKAKRPKPHCFNCGSEEHQMKDCPMPRNAARISEKRKEYMDACGEANNQNFQQRYHAEEVEERFGRFKPGVISEELQDALGVTDKSLPPFIYRMRQLGYPPGWLKEAE

B5: Substrate III (dsRNA)
RNA 1: AGUGCGCUGUAUCUUCAAGGCCACU
RNA 2: AGUGGCCUUGAAGAUACAGCGCACUAAAAAAAAAAUUUUUAAAAA
binding result [3]: binds

binding result [1]: binds
B6: ZCCHC8 1-327 (Z2) (domain or fragment)
chain: B4 chain 2

binding result [1]: binds
B7: ZCCHC8 283-415 + 508-707 (Z4) (domain or fragment)
chain: B2 chain 2

binding result [1]: binds
Binder: PIPDMSKFATGITPFEFENMAESTGMYLRIRSLLKNSPRNQQKNKKASE (domain or fragment) [Strep-tagged ZCCHC8 C-terminal domain (Z5; 659-707)]

B8: Substrate I (dsRNA)
RNA 1: AGUGCGCUGUAUCUUCAAGGCCACU
RNA 2: AGUGGCCUUGAAGAUACAGCGCACUUUUUUAAAAAAAAAAAAAAA
binding result [3]: binds

B9: Substrate II (dsRNA)
RNA 1: AGUGCGCUGUAUCUUCAAGGCCACU
RNA 2: AGUGGCCUUGAAGAUACAGCGCACUAAAAAUUUUUAAAAAAAAAA
binding result [3]: binds
